Positions count from the first letter of the chain named.
T1: human EphA7 (Homo sapiens, UniProt Q15375)
T1 construct: a protein of the extracellular region of each human Eph receptor fused with the SEAP protein and the His tag; made in house; host or cells: Expi293F cells (culture supernatant)
T1 sequence (Q15375 28-555 limits assumed): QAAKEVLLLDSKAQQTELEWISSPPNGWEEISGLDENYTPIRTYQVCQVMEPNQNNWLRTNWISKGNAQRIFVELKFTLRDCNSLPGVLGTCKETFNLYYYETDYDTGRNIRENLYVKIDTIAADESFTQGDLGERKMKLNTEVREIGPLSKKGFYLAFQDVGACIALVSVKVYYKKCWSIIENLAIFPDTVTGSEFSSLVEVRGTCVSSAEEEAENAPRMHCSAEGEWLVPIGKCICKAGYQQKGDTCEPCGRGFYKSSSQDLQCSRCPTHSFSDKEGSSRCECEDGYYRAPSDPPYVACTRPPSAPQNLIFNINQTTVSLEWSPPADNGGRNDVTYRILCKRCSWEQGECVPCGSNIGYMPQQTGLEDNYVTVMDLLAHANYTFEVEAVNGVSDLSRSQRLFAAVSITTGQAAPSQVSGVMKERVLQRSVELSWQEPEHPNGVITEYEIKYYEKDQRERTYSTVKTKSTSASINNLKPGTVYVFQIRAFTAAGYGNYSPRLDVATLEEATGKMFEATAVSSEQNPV

T2: human EphA6 (Homo sapiens, UniProt Q9UF33)
T2 construct: a protein of the extracellular region of each human Eph receptor fused with the SEAP protein and the His tag; made in house; host or cells: Expi293F cells (culture supernatant)
T2 sequence (Q9UF33 23-550 limits assumed): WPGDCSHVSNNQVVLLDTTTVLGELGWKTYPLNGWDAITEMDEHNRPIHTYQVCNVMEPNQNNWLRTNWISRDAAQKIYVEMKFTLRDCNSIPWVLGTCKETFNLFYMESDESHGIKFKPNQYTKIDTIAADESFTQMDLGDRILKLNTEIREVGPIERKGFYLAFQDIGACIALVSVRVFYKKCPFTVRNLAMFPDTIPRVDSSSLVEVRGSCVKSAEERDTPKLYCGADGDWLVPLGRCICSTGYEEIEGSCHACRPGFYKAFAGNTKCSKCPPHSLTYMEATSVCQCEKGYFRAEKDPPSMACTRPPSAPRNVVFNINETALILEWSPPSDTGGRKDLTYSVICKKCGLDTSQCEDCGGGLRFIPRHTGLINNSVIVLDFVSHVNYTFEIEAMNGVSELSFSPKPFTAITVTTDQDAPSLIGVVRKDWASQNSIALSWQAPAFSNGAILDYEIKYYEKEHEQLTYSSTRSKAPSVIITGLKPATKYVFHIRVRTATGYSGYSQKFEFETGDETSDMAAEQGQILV

T3: human EphA10 (Homo sapiens, UniProt Q5JZY3)
T3 construct: a protein of the extracellular region of each human Eph receptor fused with the SEAP protein and the His tag; made in house; host or cells: Expi293F cells (culture supernatant)
T3 sequence (Q5JZY3 34-565 limits assumed): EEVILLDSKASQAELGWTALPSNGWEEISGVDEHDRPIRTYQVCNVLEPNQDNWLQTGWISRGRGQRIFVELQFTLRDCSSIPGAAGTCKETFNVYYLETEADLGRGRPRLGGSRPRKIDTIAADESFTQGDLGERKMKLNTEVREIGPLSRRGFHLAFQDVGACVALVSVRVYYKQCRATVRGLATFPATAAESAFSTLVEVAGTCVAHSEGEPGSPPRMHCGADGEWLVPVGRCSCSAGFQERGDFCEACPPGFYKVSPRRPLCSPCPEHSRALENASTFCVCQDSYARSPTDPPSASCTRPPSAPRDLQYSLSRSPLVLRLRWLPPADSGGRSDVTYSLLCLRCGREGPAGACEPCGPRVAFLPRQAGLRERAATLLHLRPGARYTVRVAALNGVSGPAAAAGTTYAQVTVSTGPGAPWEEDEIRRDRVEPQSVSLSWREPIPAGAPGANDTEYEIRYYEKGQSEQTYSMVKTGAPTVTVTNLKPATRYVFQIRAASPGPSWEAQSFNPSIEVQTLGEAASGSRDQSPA

B1: 145 (antibody, V domains shown)
VH: QVQLVQSGSELKKPGASVKVSCKASGYTFTDYSMHWVRQAPGQGLKWMGWINTETGEPTYADDFKGRFVFSLDTSVSTAYLQISSLKAEDTAVYYCARIPLYYYGSRYWYFDVWGQGTTVTVSS
VL: DIQMTQSPSSLSASVGDRVTITCRASENIYRNLAWYQQKPGKAPKLLLYAATNLADGVPSRFSGSGSGTDYTLTISSLQSEDFATYYCQHFWGTPWTFGQGTKVEIK
modifications: synthetic humanized antibody heavy chain variable region sequence; synthetic humanized antibody light chain variable region sequence
B2: 132 (antibody, V domains shown)
VH: B1 VH with V2I, D62Q, D63G, K65T
VL: EIVMTQSPATLSVSPGERATLSCRASENIYRNLAWYQQKPGQSPRLLIYAATNLADGIPARFSGSGSGTEYTLTISSLQSEDFAVYYCQHFWGTPWTFGQGTKVEIK
modifications: synthetic humanized antibody heavy chain variable region sequence; synthetic humanized antibody light chain variable region sequence
B3: 158 (antibody, V domains shown)
VH: B1 VH with D62Q, D63G, K65T
VL: B1 VL with K45Q, S80P
modifications: synthetic humanized antibody heavy chain variable region sequence; synthetic humanized antibody light chain variable region sequence
B4: 135 (antibody, V domains shown)
VH: B1 VH with K46E
VL: B2 VL
modifications: synthetic humanized antibody heavy chain variable region sequence; synthetic humanized antibody light chain variable region sequence
B5: 159 (antibody, V domains shown)
VH: B1 VH
VL: B1 VL with K45Q, S80P
modifications: synthetic humanized antibody heavy chain variable region sequence; synthetic humanized antibody light chain variable region sequence
B6: 134 (antibody, V domains shown)
VH: B1 VH with D62Q, D63G, K65T
VL: B2 VL
modifications: synthetic humanized antibody heavy chain variable region sequence; synthetic humanized antibody light chain variable region sequence
B7: 133 (antibody, V domains shown)
VH: B1 VH with K46E, D62Q, D63G, K65T
VL: B2 VL
modifications: synthetic humanized antibody heavy chain variable region sequence; synthetic humanized antibody light chain variable region sequence
B8: 160 (antibody, V domains shown)
VH: B1 VH with V2I
VL: B1 VL with K45Q, S80P
modifications: synthetic humanized antibody heavy chain variable region sequence; synthetic humanized antibody light chain variable region sequence
B9: 144 (antibody, V domains shown)
VH: B1 VH with K46E
VL: B1 VL with K45Q, S80P
modifications: synthetic humanized antibody heavy chain variable region sequence; synthetic humanized antibody light chain variable region sequence
B10: 155 (antibody, V domains shown)
VH: B1 VH with V2I
VL: B1 VL
modifications: synthetic humanized antibody heavy chain variable region sequence; synthetic humanized antibody light chain variable region sequence
B11: 157 (antibody, V domains shown)
VH: B1 VH with K46E, D62Q, D63G, K65T
VL: B1 VL with K45Q, S80P
modifications: synthetic humanized antibody heavy chain variable region sequence; synthetic humanized antibody light chain variable region sequence

biological target: T1, human EphA7; experiment: Selectivity ELISA of humanized antibodies for human Eph receptor; type: binding; settings: coated protein 1 nM
How it was run: (§1)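 His-tagged SEAP fusions of each human Eph receptor extracellular region, from Expi293F supernatants, were captured at 1 nM on anti-His-coated wells. Humanized antibody was bound 1 h at room temperature, then detected with HRP […] IgG. TMB development was acid-stopped and read at 450 nm.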

Row | hEphA7-SEAP-: absorbance at 450 nm, percentage with respect to hEphA4-SEAP-His as 100% [%] | Molecule
1 | 6.3 | B1
2 | 4.5 | B2
3 | 6.3 | B3
4 | 5.2 | B4
5 | 5.5 | B5
6 | 5.1 | B6
7 | 4.6 | B7
8 | 6.1 | B8
9 | 5.6 | B9
10 | 5.6 | B10
11 | 6.0 | B11

biological target: T2, human EphA6; experiment: as above; type: binding; settings: coated protein 1 nM
How it was run: as §1

Row | hEphA6-SEAP-: absorbance at 450 nm, percentage with respect to hEphA4-SEAP-His as 100% [%] | Molecule
12 | 8.6 | B1
13 | 9.7 | B2
14 | 10.0 | B3
15 | 7.0 | B4
16 | 7.6 | B5
17 | 9.6 | B6
18 | 8.8 | B7
19 | 8.7 | B8
20 | 8.1 | B9
21 | 7.2 | B10
22 | 9.0 | B11

biological target: T4, human EphA2 (Homo sapiens, UniProt P29317); experiment: as above; type: binding; settings: coated protein 1 nM
T4 construct: a protein of the extracellular region of each human Eph receptor fused with the SEAP protein and the His tag; made in house; host or cells: Expi293F cells (culture supernatant)
How it was run: as §1

T4 sequence (P29317 24-537 limits assumed): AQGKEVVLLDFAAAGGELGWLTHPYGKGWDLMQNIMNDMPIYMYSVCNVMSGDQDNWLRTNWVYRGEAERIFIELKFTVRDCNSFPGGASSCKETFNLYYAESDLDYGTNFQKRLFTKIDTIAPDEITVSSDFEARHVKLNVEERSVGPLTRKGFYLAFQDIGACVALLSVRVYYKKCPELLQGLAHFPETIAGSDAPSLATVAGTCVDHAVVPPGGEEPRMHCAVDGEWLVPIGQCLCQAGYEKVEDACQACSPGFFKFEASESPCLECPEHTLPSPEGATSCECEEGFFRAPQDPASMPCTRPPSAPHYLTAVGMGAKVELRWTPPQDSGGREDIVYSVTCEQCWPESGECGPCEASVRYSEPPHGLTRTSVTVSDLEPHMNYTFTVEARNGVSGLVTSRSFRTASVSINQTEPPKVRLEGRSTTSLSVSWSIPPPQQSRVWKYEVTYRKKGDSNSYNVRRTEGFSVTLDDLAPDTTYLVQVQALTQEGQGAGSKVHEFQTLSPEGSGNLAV

Row | hEphA2-SEAP-: absorbance at 450 nm, percentage with respect to hEphA4-SEAP-His as 100% [%] | Molecule
23 | 6.5 | B1
24 | 4.8 | B2
25 | 6.7 | B3
26 | 5.0 | B4
27 | 5.4 | B5
28 | 5.0 | B6
29 | 4.7 | B7
30 | 6.1 | B8
31 | 5.6 | B9
32 | 5.5 | B10
33 | 6.3 | B11

biological target: T3, human EphA10; experiment: as above; type: binding; settings: coated protein 1 nM
How it was run: as §1

Row | hEphA10-SEAP-: absorbance at 450 nm, percentage with respect to hEphA4-SEAP-His as 100% [%] | Molecule
34 | 6.5 | B1
35 | 4.7 | B2
36 | 6.4 | B3
37 | 5.1 | B4
38 | 5.3 | B5
39 | 5.0 | B6
40 | 4.7 | B7
41 | 5.0 | B8
42 | 5.7 | B9
43 | 5.4 | B10
44 | 6.1 | B11

Reference: patent publication US10428140B2, “Anti-EphA4 antibody” (EISAI R&D MANAGEMENT CO., LTD., priority 2015, dated 2019)
